In patent US20260167721A1 (ABLEXIS, published 2026):

How the values were obtained:
[1] = target: T1, CD3 on human donor PBMC / Pan T effector cells (human, UniProt P07766 23-207; P09693 23-182; P04234 22-171; P20963 22-164); experiment: cell-based or functional assay
[2] = target: T1, CD3 on human donor PBMC / Pan T …; experiment: cell-based or functional assay; remark: listed apart in the source

T1 sequence (P07766 23-207, chain 1 of 4): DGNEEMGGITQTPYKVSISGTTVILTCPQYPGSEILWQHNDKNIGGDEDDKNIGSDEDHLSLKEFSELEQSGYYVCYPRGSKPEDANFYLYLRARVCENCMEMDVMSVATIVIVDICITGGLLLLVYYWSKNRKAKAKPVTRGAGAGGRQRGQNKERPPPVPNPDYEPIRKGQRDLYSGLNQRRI
T1 sequence (P09693 23-182, chain 2 of 4): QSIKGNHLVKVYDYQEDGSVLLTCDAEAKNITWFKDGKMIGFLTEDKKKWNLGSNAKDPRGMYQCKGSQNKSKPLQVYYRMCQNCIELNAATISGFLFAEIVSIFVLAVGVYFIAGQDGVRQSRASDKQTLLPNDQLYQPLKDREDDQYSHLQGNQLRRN
T1 sequence (P04234 22-171, chain 3 of 4): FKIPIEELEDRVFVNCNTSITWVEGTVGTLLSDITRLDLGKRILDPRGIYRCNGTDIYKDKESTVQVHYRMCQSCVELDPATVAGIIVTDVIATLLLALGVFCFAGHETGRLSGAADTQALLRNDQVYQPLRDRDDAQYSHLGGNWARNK
T1 sequence (P20963 22-164, chain 4 of 4): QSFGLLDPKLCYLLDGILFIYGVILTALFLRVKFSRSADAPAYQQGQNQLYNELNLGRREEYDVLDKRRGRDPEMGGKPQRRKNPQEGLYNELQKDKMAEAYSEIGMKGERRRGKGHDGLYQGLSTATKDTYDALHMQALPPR

Cytokine Release Assay (TNFα) Donor 0 EC50 [1] [nM] | Cytokine Release Assay (TNFα) Donor 0 gMFI max [1] [gMFI] | Cytokine Release Assay (TNFα) Donor 1 gMFI max [1] [gMFI] | Cytokine Release Assay (TNFα) Donor 2 EC50 [1] [nM] | Cytokine Release Assay (TNFα) Donor 2 gMFI max [1] [gMFI] | Cytokine Release Assay (TNFα) Donor 3 EC50 [1] [nM] | Cytokine Release Assay (TNFα) Donor 3 gMFI max [1] [gMFI] | Cytokine Release Assay (IL2) Donor 0 EC50 [2] [nM] | Cytokine Release Assay (IL2) Donor 0 gMFI max [2] [gMFI] | Cytokine Release Assay (IL2) Donor 1 EC50 [2] [nM] | Cytokine Release Assay (IL2) Donor 1 gMFI max [2] [gMFI] | Cytokine Release Assay (IL2) Donor 2 EC50 [2] [nM] | Cytokine Release Assay (IL2) Donor 2 gMFI max [2] [gMFI] | Cytokine Release Assay (IL2) Donor 3 gMFI max [2] [gMFI] | Cytokine Release Assay (TNFα) Donor 1 EC50 [1] [nM] | Cytokine Release Assay (IL2) Donor 3 EC50 [2] [nM] | Binder
0.136 | 61700 | 5330 | 0.0788 | 16000 | 0.0724 | 32800 | 0.0887 | 69600 | 0.0832 | 24300 | 0.0612 | 30000 | 79300 | – | – | CD3 × CD33-BspAb90 (bispecific antibody) chain 1: not shown chain 2: EVQLVQSGAEVKKPGSSVKVSCKASGYTITDSNIHWVRQAPGQSLEWIGYIYPYNGGTDYNQKFKNRATLTVDNPTNTAYMELSSLRSEDTAFYYCVNGNPWLAYWGQGTLVTVSSASTKGPSVFPLAPSSKSTSGGTAALGCLVKDYFPEPVTVSWNSGALTSGVHTFPAVLQSSGLYSLSSVVTVPSSSLGTQTYICNVNHKPSNTKVDKRVEPKSCDKTHTCPPCPAPEFEGGPSVFLFPPKPKDTLMISRTPEVTCVVVDVSHEDPEVKFNWYVDGVEVHNAKTKPREEQYNSTYRVVSVLTVLHQDWLNGKEYKCKVSNKALPASIEKTISKAKGQPREPQVCTLPPSREEMTKNQVSLSCAVKGFYPSDIAVEWESNGQPENNYKTTPPVLDSDGSFFLVSKLTVDKSRWQQGNVFSCSVMHEALHNRFTQKSLSLSPGK chain 3: DIQLTQSPSTLSASVGDRVTITCRASESLDNYGIRFLTWFQQKPGKAPKLLMYAASNQGSGVPSRFSGSGSGTEFTLTISSLQPDDFATYYCQQTKEVPWSFGQGTKVEVKRTVAAPSVFIFPPSDEQLKSGTASVVCLLNNFYPREAKVQWKVDNALQSGNSQESVTEQDSKDSTYSLSSTLTLSKADYEKHKVYACEVTHQGLSSPVTKSFNRGEC
0.0814 | 91600 | 13000 | 0.0452 | 24100 | 0.046 | 48600 | 0.206 | 242000 | 0.0755 | 99300 | 0.0806 | 45200 | 300000 | 0.0553 | 0.0479 | CD3 × CD33-BspAb115 (bispecific antibody) chain 1: NFMLTQPHSVSESPGKTVTISCTRTSGSIASNYVQWYQQRPGSSPTTVIYEDNQRPSGVPDRFSGSIDSSSNSASLTISGLKTEDEAAYYCQSYDRSNRVFGCGTKLTVLGGGGSGGGGSGGGGSGGGGSQVQLQESGPGLVKPSETLSLTCTVSGGSISSYYWSWIRQPAGKCLEWIGRIYTSGSTKYNPSLKSRVTMSVDTSKNQFSLKLISVTAADTAVYFCARERIRDLYFDYWGQGTLVTVSSDKTHTCPPCPAPEFEGGPSVFLFPPKPKDTLMISRTPEVTCVVVDVSHEDPEVKFNWYVDGVEVHNAKTKPREEQYNSTYRVVSVLTVLHQDWLNGKEYKCKVSNKALPASIEKTISKAKGQPREPQVYTLPPCREEMTKNQVSLWCLVKGFYPSDIAVEWESNGQPENNYKTTPPVLDSDGSFFLYSKLTVDKSRWQQGNVFSCSVMHEALHNHYTQKSLSLSPGK chain 2: EVQLVQSGAEVKKPGSSVKVSCKASGYTITDSNIHWVRQAPGQSLEWIGYIYPYNGGTDYNQKFKNRATLTVDNPTNTAYMELSSLRSEDTAFYYCVNGNPWLAYWGQGTLVTVSSASTKGPSVFPLAPSSKSTSGGTAALGCLVKDYFPEPVTVSWNSGALTSGVHTFPAVLQSSGLYSLSSVVTVPSSSLGTQTYICNVNHKPSNTKVDKRVEPKSCDKTHTCPPCPAPEFEGGPSVFLFPPKPKDTLMISRTPEVTCVVVDVSHEDPEVKFNWYVDGVEVHNAKTKPREEQYNSTYRVVSVLTVLHQDWLNGKEYKCKVSNKALPASIEKTISKAKGQPREPQVCTLPPSREEMTKNQVSLSCAVKGFYPSDIAVEWESNGQPENNYKTTPPVLDSDGSFFLVSKLTVDKSRWQQGNVFSCSVMHEALHNRFTQKSLSLSPGK chain 3: DIQLTQSPSTLSASVGDRVTITCRASESLDNYGIRFLTWFQQKPGKAPKLLMYAASNQGSGVPSRFSGSGSGTEFTLTISSLQPDDFATYYCQQTKEVPWSFGQGTKVEVKRTVAAPSVFIFPPSDEQLKSGTASVVCLLNNFYPREAKVQWKVDNALQSGNSQESVTEQDSKDSTYSLSSTLTLSKADYEKHKVYACEVTHQGLSSPVTKSFNRGEC
– | 5210 | 4470 | – | 5500 | – | 4390 | 0.454 | 16900 | 0.232 | 13400 | – | 15900 | 18000 | – | 0.141 | CD3 × CD33-BspAb105 (bispecific antibody) chain 1: SYELTQPPSVSVSPGQTARITCSGDALPKKYAYWYQQKSGQAPVLVIYEDSKRPSGIPERFSGSSSGTMATLTISGAQVEDEADYYCYSTDSSGNHRVFGCGTKLTVLGGGGSGGGGSGGGGSGGGGSEVQLVESGGGLVKPGGSLRLSCAASGFTFSYYSMNWVRQAPGKCLEWVSSISRSTTYIYYADSVKGRFTISRDNAKNSLYLQMNSLRAEDTAVYYCARDGKGAIFLDYWGQGTLVTVSSDKTHTCPPCPAPEFEGGPSVFLFPPKPKDTLMISRTPEVTCVVVDVSHEDPEVKFNWYVDGVEVHNAKTKPREEQYNSTYRVVSVLTVLHQDWLNGKEYKCKVSNKALPASIEKTISKAKGQPREPQVYTLPPCREEMTKNQVSLWCLVKGFYPSDIAVEWESNGQPENNYKTTPPVLDSDGSFFLYSKLTVDKSRWQQGNVFSCSVMHEALHNHYTQKSLSLSPGK chain 2: EVQLVQSGAEVKKPGSSVKVSCKASGYTITDSNIHWVRQAPGQSLEWIGYIYPYNGGTDYNQKFKNRATLTVDNPTNTAYMELSSLRSEDTAFYYCVNGNPWLAYWGQGTLVTVSSASTKGPSVFPLAPSSKSTSGGTAALGCLVKDYFPEPVTVSWNSGALTSGVHTFPAVLQSSGLYSLSSVVTVPSSSLGTQTYICNVNHKPSNTKVDKRVEPKSCDKTHTCPPCPAPEFEGGPSVFLFPPKPKDTLMISRTPEVTCVVVDVSHEDPEVKFNWYVDGVEVHNAKTKPREEQYNSTYRVVSVLTVLHQDWLNGKEYKCKVSNKALPASIEKTISKAKGQPREPQVCTLPPSREEMTKNQVSLSCAVKGFYPSDIAVEWESNGQPENNYKTTPPVLDSDGSFFLVSKLTVDKSRWQQGNVFSCSVMHEALHNRFTQKSLSLSPGK chain 3: DIQLTQSPSTLSASVGDRVTITCRASESLDNYGIRFLTWFQQKPGKAPKLLMYAASNQGSGVPSRFSGSGSGTEFTLTISSLQPDDFATYYCQQTKEVPWSFGQGTKVEVKRTVAAPSVFIFPPSDEQLKSGTASVVCLLNNFYPREAKVQWKVDNALQSGNSQESVTEQDSKDSTYSLSSTLTLSKADYEKHKVYACEVTHQGLSSPVTKSFNRGEC
– | 5150 | 4670 | – | 4420 | – | 4110 | – | 13600 | 3.58 | 14800 | – | 12500 | 13900 | – | 1.47 | CD3 × CD33-BspAb94 (bispecific antibody) chain 1: NFMLTQPHSVSESPGKTVTISCTRSSGSIASNYVQWYQQRPGSSPTTVIYEDNQRPSGVPDRFSGSIDSSSNSASLTISGLKTEDEADYYCQSYDSSNRVFGCGTKLTVLGGGGSGGGGSGGGGSGGGGSEVQLVESGGGLVKPGGSLRLSCAASGFTFSSYTMNWVRQAPGKCLEWVSSITTSSSYIYYADSVKGRFTISRDNAKNSLYLQMNSLRAEDTAVYYCARVTFDAFDIWGQGTMVTVSSDKTHTCPPCPAPEFEGGPSVFLFPPKPKDTLMISRTPEVTCVVVDVSHEDPEVKFNWYVDGVEVHNAKTKPREEQYNSTYRVVSVLTVLHQDWLNGKEYKCKVSNKALPASIEKTISKAKGQPREPQVYTLPPCREEMTKNQVSLWCLVKGFYPSDIAVEWESNGQPENNYKTTPPVLDSDGSFFLYSKLTVDKSRWQQGNVFSCSVMHEALHNHYTQKSLSLSPGK chain 2: EVQLVQSGAEVKKPGSSVKVSCKASGYTITDSNIHWVRQAPGQSLEWIGYIYPYNGGTDYNQKFKNRATLTVDNPTNTAYMELSSLRSEDTAFYYCVNGNPWLAYWGQGTLVTVSSASTKGPSVFPLAPSSKSTSGGTAALGCLVKDYFPEPVTVSWNSGALTSGVHTFPAVLQSSGLYSLSSVVTVPSSSLGTQTYICNVNHKPSNTKVDKRVEPKSCDKTHTCPPCPAPEFEGGPSVFLFPPKPKDTLMISRTPEVTCVVVDVSHEDPEVKFNWYVDGVEVHNAKTKPREEQYNSTYRVVSVLTVLHQDWLNGKEYKCKVSNKALPASIEKTISKAKGQPREPQVCTLPPSREEMTKNQVSLSCAVKGFYPSDIAVEWESNGQPENNYKTTPPVLDSDGSFFLVSKLTVDKSRWQQGNVFSCSVMHEALHNRFTQKSLSLSPGK chain 3: DIQLTQSPSTLSASVGDRVTITCRASESLDNYGIRFLTWFQQKPGKAPKLLMYAASNQGSGVPSRFSGSGSGTEFTLTISSLQPDDFATYYCQQTKEVPWSFGQGTKVEVKRTVAAPSVFIFPPSDEQLKSGTASVVCLLNNFYPREAKVQWKVDNALQSGNSQESVTEQDSKDSTYSLSSTLTLSKADYEKHKVYACEVTHQGLSSPVTKSFNRGEC
